± gives the standard deviation of the averaged measurements.
B1: library; a variant is named by its letters at N, in order (parent)
chain: GCUGUCACCGGUGUAUUACCCUAGUGGUCGACCGGUCUGAUGAGUCUNNNNNNAGACGAAACAGC

Legend:
hypoxanthine [1] = variants of: B1; experiment: FACS-Seq fitted mean relative fluorescence mCherry/BFP without ligand (log10 relative fluorescence); ligand: hypoxanthine (xanthine aptamer); higher = higher reporter protein expression; settings: HEK293T, ligand present: no
Method in brief: (§1)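 HEK293T libraries were lentivirally transduced with an mCherry reporter carrying the ribozyme switch and an EF1α-BFP marker, enriched, and incubated for 48 h with or without ligand before sorting into 6 bins by mCherry/BFP. Genomic DNA from each bin was PCR-amplified, barcoded and sequenced on MiSeq. Fluorescence is the fitted normal mean of the bin counts. The fit used log10(mCherry/BFP), and means were scaled to five spiked-in control ribozymes.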

hypoxanthine [2] = variants of: B1; experiment: normalized RNA/DNA level with ligand (relative to sTRSVctl = 100) (log10 (% of sTRSVctl)); ligand: hypoxanthine (xanthine aptamer); higher = less ribozyme self-cleavage, higher mRNA level; settings: ligand concentration (+) RNA-Seq: 5 mM, HEK293T, reporter: mCherry (pCS4076), ligand present: yes
Method in brief: (§2)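 Only sequences with at least 100 DNA reads were analyzed, from HEK293T cells transfected with 4 µg per 6-well well of ribozyme switch library plasmids 72 h before RNA extraction with EDTA. Any ligand was added 1 h before transfection. RNA level was defined as RNA over DNA reads, normalized to a spiked-in non-cleaving sequence or to the top sequences, then scaled and log-transformed. The top set was 25 sequences, and the scaling was ×100 followed by log10.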

hypoxanthine [3] = variants of: B1; experiment: normalized RNA/DNA level without ligand (relative to sTRSVctl = 100) (log10 (% of sTRSVctl)); ligand: hypoxanthine (xanthine aptamer); higher = less ribozyme self-cleavage, higher mRNA level; settings: HEK293T, reporter: mCherry (pCS4076), ligand present: no
Method in brief: as §2

hypoxanthine [4] = variants of: B1; experiment: FACS-Seq fitted mean relative fluorescence mCherry/BFP with ligand (log10 relative fluorescence); ligand: hypoxanthine (xanthine aptamer); ligand concentration (+) FACS-Seq: 5 mM; higher = higher reporter protein expression; settings: HEK293T, ligand present: yes
Method in brief: as §1

Variant | FACS-Seq fitted mean (log10) (hypoxanthine [1]) | normalized RNA/DNA level with ligand (log10) (hypoxanthine [2]) | normalized RNA/DNA level without ligand (log10) (hypoxanthine [3]) | FACS-Seq fitted mean (log10) (hypoxanthine [4])
GCUGUCACCGGUGUAUUACCCUAGUGGUCGACCGGUCUGAUGAGUCUUGACUAAGACGAAACAGC | 0.629 ± 0.091 | 1.953 ± 0.017 | 1.86 ± 0.029 | 0.141 ± 0.079
GCUGUCACCGGUGUAUUACCCUAGUGGUCGACCGGUCUGAUGAGUCUUGACUCAGACGAAACAGC | 0.621 ± 0.043 | 2.01 ± 0.036 | 1.97 ± 0.033 | 0.678 ± 0.044
GCUGUCACCGGUGUAUUACCCUAGUGGUCGACCGGUCUGAUGAGUCUGGACCGAGACGAAACAGC | 0.219 ± 0.056 | 1.97 ± 0.03 | 1.79 ± 0.0033 | 0.447 ± 0.027
GCUGUCACCGGUGUAUUACCCUAGUGGUCGACCGGUCUGAUGAGUCUUGAGAAAGACGAAACAGC | 0.552 ± 0.021 | 1.86 ± 0.019 | 1.74 ± 0.018 | 0.638 ± 0.083
GCUGUCACCGGUGUAUUACCCUAGUGGUCGACCGGUCUGAUGAGUCUAGACCCAGACGAAACAGC | 0.552 ± 0.035 | 1.94 ± 0.0097 | 1.92 ± 0.02 | 0.516 ± 0.11
GCUGUCACCGGUGUAUUACCCUAGUGGUCGACCGGUCUGAUGAGUCUAGACGUAGACGAAACAGC | 0.722 ± 0.019 | 1.9 ± 0.043 | 1.59 ± 0.03 | 0.696 ± 0.067
GCUGUCACCGGUGUAUUACCCUAGUGGUCGACCGGUCUGAUGAGUCUAGACGAAGACGAAACAGC | 0.525 ± 0.066 | 1.95 ± 0.049 | 1.62 ± 0.025 | 0.546 ± 0.049
GCUGUCACCGGUGUAUUACCCUAGUGGUCGACCGGUCUGAUGAGUCUAGACGGAGACGAAACAGC | 0.689 ± 0.072 | 1.81 ± 0.044 | 1.3085 ± 0.0012 | 0.834 ± 0.073
GCUGUCACCGGUGUAUUACCCUAGUGGUCGACCGGUCUGAUGAGUCUGGAGAAAGACGAAACAGC | 0.538 ± 0.019 | 1.92 ± 0.022 | 1.68 ± 0.053 | 0.643 ± 0.034
GCUGUCACCGGUGUAUUACCCUAGUGGUCGACCGGUCUGAUGAGUCUGGACUGAGACGAAACAGC | 0.544 ± 0.086 | 1.888 ± 0.012 | 1.58 ± 0.041 | 0.601 ± 0.1
GCUGUCACCGGUGUAUUACCCUAGUGGUCGACCGGUCUGAUGAGUCUAGAGAAAGACGAAACAGC | 0.479 ± 0.04 | 1.882 ± 0.0051 | 1.69 ± 0.047 | 0.467 ± 0.0095
GCUGUCACCGGUGUAUUACCCUAGUGGUCGACCGGUCUGAUGAGUCUCGACGGAGACGAAACAGC | 0.267 ± 0.083 | 1.83 ± 0.035 | 1.413 ± 0.0057 | 0.596 ± 0.078
GCUGUCACCGGUGUAUUACCCUAGUGGUCGACCGGUCUGAUGAGUCUCGACGCAGACGAAACAGC | -0.246 ± 0.0073 | 1.919 ± 0.0071 | 1.87 ± 0.019 | -0.157 ± 0.067
GCUGUCACCGGUGUAUUACCCUAGUGGUCGACCGGUCUGAUGAGUCUUGACGAAGACGAAACAGC | 0.285 ± 0.037 | 1.94 ± 0.023 | 1.581 ± 0.0051 | 0.593 ± 0.023
GCUGUCACCGGUGUAUUACCCUAGUGGUCGACCGGUCUGAUGAGUCUUGACGUAGACGAAACAGC | -0.0405 ± 0.16 | 1.91 ± 0.021 | 1.57 ± 0.064 | 0.226 ± 0.05
GCUGUCACCGGUGUAUUACCCUAGUGGUCGACCGGUCUGAUGAGUCUUGACGGAGACGAAACAGC | 0.484 ± 0.018 | 1.9 ± 0.022 | 1.486 ± 0.01 | 0.646 ± 0.032
GCUGUCACCGGUGUAUUACCCUAGUGGUCGACCGGUCUGAUGAGUCUCGAGAAAGACGAAACAGC | 0.492 ± 0.014 | 1.907 ± 0.0062 | 1.58 ± 0.0075 | 0.65 ± 0.015
GCUGUCACCGGUGUAUUACCCUAGUGGUCGACCGGUCUGAUGAGUCUGGACGAAGACGAAACAGC | 0.478 ± 0.053 | 1.904 ± 0.015 | 1.64 ± 0.031 | 0.693 ± 0.025
GCUGUCACCGGUGUAUUACCCUAGUGGUCGACCGGUCUGAUGAGUCUGGACGGAGACGAAACAGC | 0.346 ± 0.049 | 1.81 ± 0.035 | 1.42 ± 0.016 | 0.584 ± 0.054
GCUGUCACCGGUGUAUUACCCUAGUGGUCGACCGGUCUGAUGAGUCUAGACUCAGACGAAACAGC | 0.486 ± 0.012 | 1.944 ± 0.016 | 1.94 ± 0.034 | 0.646 ± 0.01
GCUGUCACCGGUGUAUUACCCUAGUGGUCGACCGGUCUGAUGAGUCUAGACUUAGACGAAACAGC | 0.58 ± 0.039 | 1.946 ± 0.008 | 1.9 ± 0.021 | 0.5558 ± 0.0047

Source: the supplement of paper PMC6757056
